Source: the nanobody polyreactivity screen of Harvey et al. (2022)

Test: yeast display, Sf9 membrane polyspecificity reagent, FACS + sequencing; frameworks hold sequencing errors
Outline: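 In a synthetic yeast display library (Saccharomyces cerevisiae BJ5465), nanobody expression was induced with galactose for 36–48 hours. FACS gates were set low and high (top ~1%) using anti-HA fluorescence for expression and streptavidin fluorescence for binding of the Sf9 membrane reagent. Each polyreactivity label is drawn from the gate of origin.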

Question: With “QDQLVESVGGLVQAGGSLRLSCAASGITFRYYTMGWYRQAPGKESELVAVISWSGGSTYYADSVKGRFTISRDNAKNTVYLQMNSLKPEDTAVYYCAAVRRISRYDYWGQGTQVTVSS” as the sequence, how does the “polyreactivity (PSR sort gate)” value read?
Answer: high polyreactivity

Question: For “QVQLVESGGGLVQAGGILRLSCAASGLIFPPNAMGWYRQAPGKERELVASITRSGGSTYYADSVKGRFTISRDNAKNTVYLQMNSLKPEDTAVYYCAAYLDTSRYGVLYDYWGQGTQVTVSS”, which “polyreactivity (PSR sort gate)” value is on record?
Answer: low polyreactivity

Question: Which “polyreactivity (PSR sort gate)” value does the source give for “QVQLVESGGGLVHAGSSLRLSCAASGSTYPYNAMGWYRQAPGKERELVAAIDYSGGSTYAVSVKGRFTISRDNAKNTVYLQMNSLTPEDTAVYYCAYCRVVVYDVSGDDEDYDYWGQGSQVTVSS” here?
Answer: low polyreactivity

Question: Which “polyreactivity (PSR sort gate)” value does the source give for “QVQLVESGGGLVQAGGSLRLSCAASGRTFYRNAMGWYIQAPGKERELVAAITWSGVSTYYADSVKGRFTISRDNAKNTVYLQMNSLKPEDTAVYYCARGRVLRNGHYFQLRNYDYWGQGTQVTVSS” here?
Answer: high polyreactivity

Question: For “QVQLVESGGGLVQAGGSLRLSCAASGFIFASYAMGWYRQAPGKERELVAAISSSGGRTYYADSVKGRFTISRDNAKNTVYLQMNSLKPEDTAVYYCAADWRVTYDYWGQGTQVTVSS”, which “polyreactivity (PSR sort gate)” value is on record?
Answer: high polyreactivity

Question: Which “polyreactivity (PSR sort gate)” value does the source give for “QVQLVESGGGLVQAGGSLRLSCAASGRTFGYYTMGWYRQSPGKERELVATISSDGTTNYADSVKGRFTISRDNAKNTVYLQMNSLKPEDTAVYYCNADFRLQYYYRIYDYWGQGTQVTVSS” here?
Answer: low polyreactivity

Question: Which “polyreactivity (PSR sort gate)” value does the source give for “QVQLVESGGGLVQAGGSLRLSCAASGRTIIYNTMGWYRQAPGKEREFVAAINWSGGSTYYADSVKGRFTISRDNAKNTVYLQMNSLKPEDTAVYYCNAEAGYYRPLIYDYWGQGTQVTVSS” here?
Answer: low polyreactivity

Question: With “QVQLVESGGGLVQAGGSLRLSCAASGIIFLNYDIGWYRPAPGKERELVAAITTSGASTYYADSVKGRFTISRDNAKNTVYLQMNSLKREDTAVYYCAAVFRHARYRYDYWGQGTQVTVSS” as the sequence, how does the “polyreactivity (PSR sort gate)” value read?
Answer: high polyreactivity

Question: For “QDQLVESGGGLVQAGGSLRLSCAASGSTFSRNAMGWYRQAPGKERELVAAISWRGGRTYYADSVKGRFTISRDNAKNTVYLQMNSLKPEDTAVYYCAAEHKYRYDYWGQGTQVTVSS”, which “polyreactivity (PSR sort gate)” value is on record?
Answer: low polyreactivity

Question: With “QDQHVESGGGLDQAGGSLRLSCAASGRIFSYNTMGWYRQAPGQERELVAASSSSGGSTYYADSVKGRFTISRDNAKNTVYLQMNSLKPEDTAVYYCNAVGRFSTRREYWGQGTQVTVSS” as the sequence, how does the “polyreactivity (PSR sort gate)” value read?
Answer: high polyreactivity

Question: Which “polyreactivity (PSR sort gate)” value does the source give for “QVQLVESGGGLVQAGGSLRLSCAASGSILPYYAMGWYRQAPGKERELVATITDGTDTYYADSVKGRFTISRDNAKNTVYLQMNSLKPEDTAVYYCNADGYVYYLHEDYWGQGTQVTVSS” here?
Answer: low polyreactivity

Question: With “QVQLVESGGGLVQAGGSLRLSCAASGGTFERNAMGWYRQAPGKERELVAAITGSGGRTYYADSVKGRFTISRDNAKNTVYLHMNSLKPEDTAVYYCAAVPWWKYNYWGQGTQVTVSS” as the sequence, how does the “polyreactivity (PSR sort gate)” value read?
Answer: high polyreactivity

Question: For “QVQLVESGGGLVQAGGSLRLSCAASGSTFWYYAMGWYRQAPGKEREFVAAITTSAGRTYYADSVKGRFTISRDNAKNTVYLQMNSLKPEDTAVYYCAAEPRQYWEYNYWGQGTQVTVSS”, which “polyreactivity (PSR sort gate)” value is on record?
Answer: high polyreactivity

Question: Which “polyreactivity (PSR sort gate)” value does the source give for “QVQLVESGGGLVQAGGTLRLSCAASGFIFTRYAMGWYSQAPGKERELVAAIKLSGTSTYYADSVKGRFTISRDNAKYTVYLQMNSLKPEDSAVYYCAATSSYIYPYGYWGQGTQVTVSS” here?
Answer: high polyreactivity

Question: For “QVQLVESWGGLVQAGGSLRLSCAASGSIFSDYAMGWYRQARGKERELVAAITQSGGSTYADSVKGRFTISRDNAKNTVYLQMNSLKPDDTAVYYCAADEVPGFGYPPYPWFDYWGQGTQVTVSS”, which “polyreactivity (PSR sort gate)” value is on record?
Answer: low polyreactivity

Question: Which “polyreactivity (PSR sort gate)” value does the source give for “QVQLVESGGGIVQAGGSLRLSCAASGSTFDSYAMGWYRQAPGKERELVATISWTGSSTYYADSVKGRFTISRDNAKNTVYLQMNSLKPADTAVYYCATDQYYEYDYWGQGTQVTVSS” here?
Answer: low polyreactivity

Question: For “QVQLVESGGGLVQAGGSLRLSCAASGSTFRIYAMGWYRQAPGKERELVAAITSGGDTNYADSVKGRFTISRDNANNTVYLQMKSLKPEDTSVYYCAADGHSVYTELDYWGQGTQVTVSS”, which “polyreactivity (PSR sort gate)” value is on record?
Answer: low polyreactivity

Question: With “QVQLVESGGGLVQAGGSLRLSCAPSGIILAYYAMGWYRQAPGKERELVAAISRSGGITYYADSVKGRFTISRDNAKNTVYLQMNSLKPEDTAVYYCARYSSRPYDYWGQGTQVTVSS” as the sequence, how does the “polyreactivity (PSR sort gate)” value read?
Answer: high polyreactivity

Question: With “QVQLVESGGGLVQAGGSLRLSCAASGSTFAWYTMGWYRQAPGKERELVASITSTGSTNYADSVKGRFTISRDNAKNTVYLQMNSLKPEDTAVYYCAAAVRAWYRRLYDYWGQGTQVTVSS” as the sequence, how does the “polyreactivity (PSR sort gate)” value read?
Answer: high polyreactivity

Question: With “QVQLVESGGGLVQAGGSLRLSCAASGRIFRINAMGWYRQAPGKERELVATITSGGRTKYADSVKGRFTISRDNAKNTVYLQMNSLKPEDTAVYYCAADWRVRVRQHIPDKYDYWGQGTQVTVSS” as the sequence, how does the “polyreactivity (PSR sort gate)” value read?
Answer: low polyreactivity

Question: Which “polyreactivity (PSR sort gate)” value does the source give for “QVQLVESGGGLVQAGGSLRLSCAASGSTFGYYAMGWYRQAPGKERELVAVIRRGGSTNYADSVKGRFTISRENAKNTVYLQMHSLKPEDTAVYYCAKSQRGTVYSYYYWGQGSQVTVSS” here?
Answer: high polyreactivity

Question: With “QVQLVESGGGLVQAGGSLRLSCAASGTTFAKNAMGWYRQAPGKERELVAAISWSGGSTYYADSVKGRFTISRDNAKNSVYLQMNSLKPVDTAVYYCAADSPRYGGYGYWGQGTQVTVSS” as the sequence, how does the “polyreactivity (PSR sort gate)” value read?
Answer: low polyreactivity

Question: With “QVQLVESGGGLVQAGGSLRLSCAASGGIFDRYAMGWYRQAPGKERELVAAITGSGGRTYYADSVKGRFTISRDKAKNSVYLQMTSLKPVDPAVYYCARAFGQRRYDYWGHGTQVTVSS” as the sequence, how does the “polyreactivity (PSR sort gate)” value read?
Answer: high polyreactivity

Question: With “QVQLVESGGGLVQAGGSLRLSCAASGRTFSKYAMGWYRQAPGKERELVAAIRWSGGSTYYADSVKGRFTISRDNAKNTVYLQMNSLKPEDTAVYYSAKRSRGLKFDYWGLGTQVTVSS” as the sequence, how does the “polyreactivity (PSR sort gate)” value read?
Answer: high polyreactivity

Question: With “QVQLVESGGGLVQAGGSLRLSCAASGYTYWQYAMGWYRQAPGKERELVATITSRGGSTYYADSVKGRFTISRDNAKNTVYLQMNSLIPEDTAVYYCNARRRYSTRRSDYWGQGTQVTVSS” as the sequence, how does the “polyreactivity (PSR sort gate)” value read?
Answer: high polyreactivity

Question: For “QVRLVESGGGLVQAGGSLRLSCAASGSILYRYTMGWYRQAPGKETELVAAITWSDGSTYYSDSVKGRFTISRDNAKNTVYLQKNSLKPEDTAVYDCAADLWLDVDHEWSGGDYWGQGTQVTVSS”, which “polyreactivity (PSR sort gate)” value is on record?
Answer: low polyreactivity

Question: Which “polyreactivity (PSR sort gate)” value does the source give for “QVQLVESGGGLVQAGGSLRLSCAASGFTFVYYAMGCYRQAPGKERELVAAISRSGATTFYADSVKGRFTISRDNAKNTVYLQMNSLKPEDTAVYYCAVDSYAYYYGYWGQGTQVTVSS” here?
Answer: high polyreactivity

Question: With “QVQLVESGGGLVQAGGSLRLSCAASGNIFSSNAMGWYRQAPGKERELVAAITRSGGSTYYADSVKGRFTISRDNSKKTVYLLMNSLKPEDTAFYYCAARHYPRNSWGYDYWGQGSQVTVSS” as the sequence, how does the “polyreactivity (PSR sort gate)” value read?
Answer: high polyreactivity

Question: With “QVQLVESGRGLVQAGGSLRLSCAASGRIFGIYAMGWHRQAPGKEMELVATITDGTITNYADSVKGRFTISRDNAKNTVYLQMNSLKPEDTAVYYCAAGTQAHAYVVRPIEMDYWGQGTQVTVSS” as the sequence, how does the “polyreactivity (PSR sort gate)” value read?
Answer: low polyreactivity

Question: With “QVQLVESGGGLVQAGCSLRLSCAASGITFELYAMGSYRQAPGKERELVAAISSNGGITFYADSVKGRFTISRDYAKNTVYLQMKSLKPEDTEVYYCAARYVRYPRYDYWGQGTQVTVSS” as the sequence, how does the “polyreactivity (PSR sort gate)” value read?
Answer: high polyreactivity
